Data reported in the Human Domainome abundance scans (Beltran et al. 2025).
± gives the uncertainty stated by the source.

B1: Neutrophil cytosol factor 2, residues 456 to 514; numbered along this chain, P19878 (parent)
chain: LKKGSQVEALFSYEATQPEDLEFQEGDIILVLSKVNEEWLEGECKGKVGIFPKVFVEDC

Variants of: B1
Assay: abundance fitness (aPCA) (normalised: wild type 0, dead -1); higher = more abundant; growth selection in yeast, the domain comes from the species named
Details: Homo sapiens

Row | Variant | abundance fitness
1 | LKKGSQVEALFSYEATQPEDLEFQEGDIILVLSKVNEEWLEGEPKGKVGIFPKVFVEDC | -0.583 ± 0.2
2 | LKKGSQVEALFSYEATQPEDLEFQEGDIILVLSKVNEEWLEGELKGKVGIFPKVFVEDC | -0.35 ± 0.1
3 | LKKGSQVEALFSYEATQPEDLEFQEGDIILVLSKVNEEWLEGENKGKVGIFPKVFVEDC | -0.924 ± 0.2
4 | LKKGSQVEALFSYEATQPEDLEFQEGDIILVLSKVNEEWLEGEWKGKVGIFPKVFVEDC | -0.182 ± 0.17
5 | LKKGSQVEALFSYEATQPEDLEFQEGDIILVLSKVNEEWLEGEVKGKVGIFPKVFVEDC | -0.455 ± 0.094
6 | LKKGSQVEALFSYEATQPEDLEFQEGDIILVLSKVNEEWLEGEMKGKVGIFPKVFVEDC | 0.102 ± 0.21
7 | LKKGSQVEALFSYEATQPEDLEFQEGDIILVLSKVNEEWLEGERKGKVGIFPKVFVEDC | -0.336 ± 0.12
8 | LKKGSQVEALFSYEATQPEDLEFQEGDIILVLSKVNEEWLEGETKGKVGIFPKVFVEDC | -0.467 ± 0.17
9 | LKKGSQVEALFSYEATQPEDLEFQEGDIILVLSKVNEEWLEGEYKGKVGIFPKVFVEDC | -0.478 ± 0.11
10 | LKKGSQVEALFSYEATQPEDLEFQEGDIILVLSKVNEEWLEGECKGSVGIFPKVFVEDC | -0.22 ± 0.095
11 | LKKGSQVEALFSYEATQPEDLEFQEGDIILVLSKVNEEWLEGECKGNVGIFPKVFVEDC | -0.271 ± 0.1
12 | LKKGSQVEALFSYEATQPEDLEFQEGDIILVLSKVNEEWLEGECKGGVGIFPKVFVEDC | -0.511 ± 0.13
13 | LKKGSQVEALFSYEATQPEDLEFQEGDIILVLSKVNEEWLEGECKGHVGIFPKVFVEDC | -0.673 ± 0.2
14 | LKKGSQVEALFSYEATQPEDLEFQEGDIILVLSKVNEEWLEGECKGCVGIFPKVFVEDC | -0.658 ± 0.14
15 | LKKGSQVEALFSYEATQPEDLEFQEGDIILVLSKVNEEWLEGECKGAVGIFPKVFVEDC | -1.04 ± 0.27
16 | LKKGSQVEALFSYEATQPEDLEFQEGDIILVLSKVNEEWLEGECKGWVGIFPKVFVEDC | -0.416 ± 0.24
17 | LKKGSQVEALFSYEATQPEDLEFQEGDIILVLSKVNEEWLEGECKGLVGIFPKVFVEDC | -0.361 ± 0.094
18 | LKKGSQVEALFSYEATQPEDLEFQEGDIILVLSKVNEEWLEGECKGVVGIFPKVFVEDC | -0.331 ± 0.1
19 | LKKGSQVEALFSYEATQPEDLEFQEGDIILVLSKVNEEWLEGECKGYVGIFPKVFVEDC | -0.742 ± 0.14
20 | LKKGSQVEALFSYEATQPEDLEFQEGDIILVLSKVNEEWLEGECKGIVGIFPKVFVEDC | -0.642 ± 0.15
21 | LKKGSQVEALFSYEATQPEDLEFQEGDIILVLSKVNEEWLEGECKGDVGIFPKVFVEDC | -0.858 ± 0.21
22 | LKKGSQVEALFSYEATQPEDLEFQEGDIILVLSKVNEEWLEGECKGEVGIFPKVFVEDC | -0.822 ± 0.42
23 | LKKGSQVEALFSYEATQPEDLEFQEGDIILVLSKVNEEWLEGECKGQVGIFPKVFVEDC | -0.856 ± 0.41

Row | Variant | abundance fitness
24 | LKKGSQVEALFSYEATQPEDLEFQEGDIILVLSKVNEEWLEGECKGMVGIFPKVFVEDC | -0.924 ± 0.32
25 | LKKGSQVEALFSYEATQPEDLEFQEGDIILVLSKVNEEWLEGECKGFVGIFPKVFVEDC | -0.241 ± 0.1
26 | LKKGSQVEALFSYEATQPEDLEFQEGDIILVLSKVNEEWLEGECKGRVGIFPKVFVEDC | -0.118 ± 0.11
27 | LKKGSQVEALFSYEATQPEDLEFQEGDIILVLSKVNEEWLEGECKGTVGIFPKVFVEDC | -0.284 ± 0.13
28 | LKKGSQVEALFSYEATQPEDLEFQEGDIILVLSKVNEEWLEGECKGPVGIFPKVFVEDC | -0.806 ± 0.27
29 | LKKGSQVEALFSYEATQPEDLEFQEGDIILVLSKVNEEWLEGECKGKIGIFPKVFVEDC | -0.138 ± 0.1
30 | LKKGSQVEALFSYEATQPEDLEFQEGDIILVLSKVNEEWLEGECKGKWGIFPKVFVEDC | -0.901 ± 0.49
31 | LKKGSQVEALFSYEATQPEDLEFQEGDIILVLSKVNEEWLEGECKGKTGIFPKVFVEDC | -0.031 ± 0.12
32 | LKKGSQVEALFSYEATQPEDLEFQEGDIILVLSKVNEEWLEGECKGKFGIFPKVFVEDC | -0.505 ± 0.15
33 | LKKGSQVEALFSYEATQPEDLEFQEGDIILVLSKVNEEWLEGECKGKSGIFPKVFVEDC | -0.355 ± 0.13
34 | LKKGSQVEALFSYEATQPEDLEFQEGDIILVLSKVNEEWLEGECKGKYGIFPKVFVEDC | -0.17 ± 0.13
35 | LKKGSQVEALFSYEATQPEDLEFQEGDIILVLSKVNEEWLEGECKGKRGIFPKVFVEDC | 0.68 ± 0.097
36 | LKKGSQVEALFSYEATQPEDLEFQEGDIILVLSKVNEEWLEGECKGKKGIFPKVFVEDC | 0.295 ± 0.19
37 | LKKGSQVEALFSYEATQPEDLEFQEGDIILVLSKVNEEWLEGECKGKDGIFPKVFVEDC | -0.443 ± 0.17
38 | LKKGSQVEALFSYEATQPEDLEFQEGDIILVLSKVNEEWLEGECKGKPGIFPKVFVEDC | -1.04 ± 0.37
39 | LKKGSQVEALFSYEATQPEDLEFQEGDIILVLSKVNEEWLEGECKGKGGIFPKVFVEDC | -0.387 ± 0.15
40 | LKKGSQVEALFSYEATQPEDLEFQEGDIILVLSKVNEEWLEGECKGKAGIFPKVFVEDC | 0.008 ± 0.11
41 | LKKGSQVEALFSYEATQPEDLEFQEGDIILVLSKVNEEWLEGECKGKNGIFPKVFVEDC | -0.334 ± 0.15
42 | LKKGSQVEALFSYEATQPEDLEFQEGDIILVLSKVNEEWLEGECKGKCGIFPKVFVEDC | -0.392 ± 0.16
43 | LKKGSQVEALFSYEATQPEDLEFQEGDIILVLSKVNEEWLEGECKGKEGIFPKVFVEDC | -0.974 ± 0.44
44 | LKKGSQVEALFSYEATQPEDLEFQEGDIILVLSKVNEEWLEGECKGKLGIFPKVFVEDC | -0.706 ± 0.15
45 | LKKGSQVEALFSYEATQPEDLEFQEGDIILVLSKVNEEWLEGECYGKVGIFPKVFVEDC | -0.505 ± 0.16
